Experimental data reported in PMC5291255.

Biological target: T1, nPfh1-K338A (His6-Trx-nPfh1-K338A-FLAG) (Schizosaccharomyces pombe, UniProt Q9UUA2 =MG+22-805, K338A;internal_change)
T1 sequence: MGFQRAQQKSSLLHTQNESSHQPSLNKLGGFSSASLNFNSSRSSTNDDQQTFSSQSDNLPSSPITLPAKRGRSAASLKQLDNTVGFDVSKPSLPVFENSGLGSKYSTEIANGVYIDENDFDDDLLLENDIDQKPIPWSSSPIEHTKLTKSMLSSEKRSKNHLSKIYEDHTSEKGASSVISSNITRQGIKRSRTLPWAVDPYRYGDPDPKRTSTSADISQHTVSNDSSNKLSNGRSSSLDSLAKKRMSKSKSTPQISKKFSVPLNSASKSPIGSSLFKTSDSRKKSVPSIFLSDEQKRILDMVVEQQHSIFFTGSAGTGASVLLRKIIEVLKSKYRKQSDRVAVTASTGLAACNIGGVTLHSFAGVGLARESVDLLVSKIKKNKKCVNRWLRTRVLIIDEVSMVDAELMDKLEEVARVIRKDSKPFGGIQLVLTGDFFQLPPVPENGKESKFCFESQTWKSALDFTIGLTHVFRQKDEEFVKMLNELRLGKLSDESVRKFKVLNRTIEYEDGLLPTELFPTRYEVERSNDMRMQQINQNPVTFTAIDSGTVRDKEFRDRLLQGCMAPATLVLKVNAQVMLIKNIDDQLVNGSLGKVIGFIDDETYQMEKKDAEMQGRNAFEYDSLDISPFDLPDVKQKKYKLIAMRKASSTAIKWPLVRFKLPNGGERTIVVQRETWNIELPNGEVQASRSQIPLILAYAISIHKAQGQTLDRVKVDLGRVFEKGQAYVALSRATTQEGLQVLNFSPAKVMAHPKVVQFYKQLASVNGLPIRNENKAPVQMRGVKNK
Assay: EMSA

AAAAAAAAAA (ssDNA) [Poly(A)10]
binding result: no binding
